{
  "source": "patent US20100095387A1",
  "about": "“METHODS AND REAGENTS FOR SCREENING NEW DRUGS AND FOR TREATING ION PUMP ASSOCIATED DISORDERS AND DISEASES” (priority 2005, published 2010)",
  "key": {"cortical neurons": {"test_system": "cortical neurons", "assay": "c-fos induction, Fos in situ enzyme-linked immunoassay in cortical cultures", "format": "cell-based, mouse", "conditions": "C-AgΔ20 at 50 pM or 5 nM; C-Ag15 up to fivefold above saturation for C-Ag20z0/8", "method": "(§1) Mouse cortical cultures were prepared from newborn or 1-d-old ICR strain mice (Harlan) as described previously (Hilgenberg et al., 1999). For the first 24 h after plating, cells were maintained in neural basal medium (NBM) plus B27 supplements (Invitrogen), and in nonneuronal cell-conditioned NBM (cNBM) plus B27 thereafter, at 37° C. in humidified 5% CO2 atmosphere. To further reduce proliferation of nonneuronal cells, cultures on glass coverslips used for histology were treated with 5 μM 5-fluoro-2-deoxyuridine (Sigma-Aldrich) 3-4 d after plating. Hippocampal and cerebellar cultures were prepared in a similar manner. Experiments were performed on 10-14-d-old cultures. Agrin-deficient neuron cultures were prepared from cortices of embryonic d 18-19 fetuses resulting from matings between mice heterozygous for a mutation in the agrin gene (Gautam et al., 1996). Cultures were prepared and genotyped as described previously (Li et al., 1999), and were maintained as above.\nFos expression in cortical cultures was measured by in situ enzyme-linked immunoassay (Hilgenberg et al., 1999). In brief, 11-14-d-old neuronal cultures were treated for 10 min with agrin or other agent diluted in NBM or PBS, then washed in cNBM and returned to the incubator for 2 h. […] The level of Fos expression was determined by monitoring conversion of p-nitrophenyl phosphate to a soluble yellow reaction product at 405 nm."}, "chick skeletal myotubes": {"test_system": "chick skeletal myotubes", "assay": "Fos expression in chick muscle cultures", "format": "cell-based", "conditions": "1 nM C-Ag15 with 50 pM C-Ag95z8", "method": "Chick muscle cultures were prepared from pectoral muscles of 10-11-d-old White Leghorn chick embryos as described previously (Hilgenberg et al., 1999). Experiments were performed on 4-6-d-old cultures.\nFos expression in cortical cultures was measured by in situ enzyme-linked immunoassay (Hilgenberg et al., 1999). In brief, 11-14-d-old neuronal cultures were treated for 10 min with agrin or other agent diluted in NBM or PBS, then washed in cNBM and returned to the incubator for 2 h. Cultures were rinsed in PBS, fixed in ice cold 4% PFA, and blocked in PBS containing 0.1% Triton X-100 and 4% BSA (PBSTB) before being incubated in a primary rabbit antibody against Fos (Ab-2; Oncogene Research Products) and secondary goat antibody against […] conjugated to alkaline phosphatase (Southern Biotechnology Associates, Inc.). The level of Fos expression was determined by monitoring conversion of p-nitrophenyl phosphate to a soluble yellow reaction product at 405 nm.\nTo learn whether inhibition of agrin signaling by C-Ag15 might extend to other neurons or even muscle, mouse hippocampal and cerebellar neurons or chick skeletal myotubes were incubated with 50 pM C-Ag95z8 alone or in the presence of 1 nM C-Ag15, a concentration that blocks activity in cortical neurons. […] However, co-incubation with C-Ag15 inhibited Fos expression in the neurons, but had no effect on muscle. […]"}, "chick myotubes": {"test_system": "chick myotubes", "assay": "AChR clustering assay", "format": "cell-based", "conditions": "1 nM C-Ag15 with 50 pM C-Ag95z8 overnight"}, "cardiac myocytes [1]": {"test_system": "cardiac myocytes", "assay": "Spontaneous contraction frequency of cultured cardiac myocytes", "format": "cell-based, mouse", "method": "FIG. 17. Cardiac myocyte contraction is agrin dependent. Cardiac myocytes were prepared from hearts of individual embryos produced by heterozygous pairings. The genotype of cultures was determined by PCR analysis of tissue samples from each embryo. Myocytes were maintained in 199 medium containing 10% FCS as described (Mitcheson et al., 1998). At 5 days in culture, the frequency of spontaneous contractions was determined by counting contractions in myocytes from 5 random fields at 300× magnification for 30 seconds. Contraction frequency is dependent on Agrn gene dosage such that Agrn−/−>Agrn+/−>Agrn+/+. Addition of C-Ag208 to the growth medium rescues the Agrn mutant phenotype whereas C-Ag15 increased the contraction frequency of wild type myocytes to a level similar to Agrn−/− cells. Bars show mean±SEM for a minimum of 2 independent platings from 3 embryos, except for Agrn+/−treated with C-Ag208, which was a single plating of 2 embryos. All data were collected blind with respect to genotype and agrin treatment. *** p≦0.001. ANOVA with Bonferroni post-hoc pair-wise comparison.\nQuantitative studies confirmed and extended these observations by showing that the frequency of myocyte contraction is dependent on agrin gene dose: Agrn−/− myocyte contraction frequency is about 2-fold higher and Agrn+/− 1.5-fold higher than Agrn+/+ myocytes (FIG. 17). To learn whether the effect of the Agrn mutation on myocyte contraction is a direct result of the loss of agrin expression the effects of growing the cells in media supplemented with C-Ag208, an active agrin fragment, or C-Ag15, the agrin antagonist was next examined."}, "α3Na+/K+-ATPase [2]": {"target": "T1, α3Na+/K+-ATPase (Mus musculus, UniProt Q6PIC6)", "assay": "Whole cell current clamp of cultured cortical neurons, channel blockers present", "format": "cell-based"}, "[3]": {"test_system": "layer V neurons in acute cortical slices", "assay": "Whole cell current clamp of layer V neurons in acute cortical slices", "format": "cell-based, mouse"}, "α3Na+/K+-ATPase [4]": {"target": "T1, α3Na+/K+-ATPase", "assay": "Na+ imaging (SBFI-AM) of cultured cortical cells", "format": "cell-based"}, "[5]": {"test_system": "cultured cortical neurons", "assay": "Firing properties of cultured cortical neurons in normal external solution", "format": "cell-based, mouse", "conditions": "co-incubation with C-Ag15"}, "hippocampal neurons": {"test_system": "hippocampal neurons", "assay": "Fos expression in hippocampal neurons", "format": "cell-based, mouse", "conditions": "1 nM C-Ag15 with 50 pM C-Ag95z8", "method": "as §1\nFos expression in cortical cultures was measured by in situ enzyme-linked immunoassay (Hilgenberg et al., 1999). In brief, 11-14-d-old neuronal cultures were treated for 10 min with agrin or other agent diluted in NBM or PBS, then washed in cNBM and returned to the incubator for 2 h. […] The level of Fos expression was determined by monitoring conversion of p-nitrophenyl phosphate to a soluble yellow reaction product at 405 nm. […]"}, "cardiac myocytes [6]": {"test_system": "cardiac myocytes", "assay": "Ca2+ (Fura-2) and Na+ imaging of cultured cardiac myocytes", "conditions": "10 fold excess of C-Ag15"}},
  "note": "“Also recorded” adds a separate entry of the source.",
  "data": [
    {"molecule": "C-Ag15: 15-kD COOH-terminal fragment of agrin created by deleting 37 amino acids from the NH2 terminus of C-Ag20, SEQ. ID NO. 3 (protein, Synthetically produced sequence) MDPWIGKAAERADYMALAIVDGHLQLSYDLASQPVVLRSTVKVNTNRWLRVRAHREHREGSLQVGNEAPVTSSSPLGATQLDTDGALWLGGLQKLPVGQPLPKAYGTGFVGCLRNVVGHRQLHLLEDAVTKPELRPCPTLNSKLGPEQKLISEEDLNSAVDHHHHHH", "values": [
      {"measurement": "effect of fragment alone on Fos expression", "setting": "cortical neurons", "result": "no effect"},
      {"measurement": "effect on C-Ag95z8-induced Fos expression", "setting": "chick skeletal myotubes", "result": "no effect"},
      {"measurement": "effect on AChR clustering activity of C-Ag95z8", "setting": "chick myotubes", "result": "no effect"},
      {"measurement": "contraction frequency", "setting": "cardiac myocytes [1]; Agrn+/+ and Agrn+/− myocytes grown in fragment", "result": "significantly increased"},
      {"measurement": "contraction frequency", "setting": "cardiac myocytes [1]; Agrn−/− cells grown in fragment", "result": "no effect"},
      {"measurement": "change in membrane potential", "setting": "α3Na+/K+-ATPase [2]", "result": "−1.0±0.4", "unit": "mV"},
      {"measurement": "effect on depolarization induced by active agrin fragments", "setting": "α3Na+/K+-ATPase [2]", "result": "effective in blocking depolarization"},
      {"measurement": "effect on ouabain induced membrane depolarization", "setting": "α3Na+/K+-ATPase [2]", "result": "blocked"},
      {"measurement": "time to repolarization after addition", "setting": "[3]; in kainic acid", "result": "≤ 10", "unit": "min"},
      {"measurement": "membrane potential", "setting": "[3]; kainic acid 0.5 μM + C-Ag15", "result": "−66.3±1.8", "unit": "mV"},
      {"measurement": "action potential frequency", "setting": "[3]; kainic acid plus C-Ag15", "result": "0.01±0.005", "unit": "Hz"},
      {"measurement": "effect on response to C-Ag200", "setting": "[3]; slices", "result": "blocked"},
      {"measurement": "spontaneous action potentials", "setting": "[3]; two spontaneously active neurons", "result": "reversibly inhibited"},
      {"measurement": "effect on Na+ increase induced by active agrin fragments", "setting": "α3Na+/K+-ATPase [4]", "result": "blocked"},
      {"measurement": "effect on ouabain-induced increase in neuronal Na+", "setting": "α3Na+/K+-ATPase [4]", "result": "blocked; also recorded: significantly reduced"},
      {"measurement": "neuronal intracellular Na+", "setting": "α3Na+/K+-ATPase [4]", "result": "no significant effect"},
      {"measurement": "effect on depolarization and action potential increase induced by C-Ag20 isoforms", "setting": "[5]", "result": "blocked"},
      {"measurement": "effect on C-Ag95z8-induced Fos expression", "setting": "hippocampal neurons", "result": "completely inhibited"},
      {"measurement": "antagonism of C-Ag208 response", "setting": "cardiac myocytes [6]", "result": "effective agrin antagonist; also recorded: effectively blocks"}
    ]}
  ]
}
